Measurements from PMC9426492, “TrmB Family Transcription Factor as a Thiol-Based Regulator of Oxidative Stress Response” (mBio, 2022).

Biological target: the molecule itself
Assay: non-reducing SDS-PAGE (intersubunit disulfide bond assay); purified StrepII-tagged protein dialysed overnight in 100 mM Tris-Cl pH 7.5, 2 M NaCl; no reducing reagent; diluted 1:1 in SDS-loading buffer, boiled 10 min, 16% SDS-PAGE, Coomassie stain; shows only covalently (disulfide) linked subunits

B1: OxsR (HVO_2970) wild type with a C-terminal StrepII tag (natural protein, Haloferax volcanii, UniProt D4GY41 1-123, looked up)
chain: MADAPDMGELMETEDPNFGQVLACVFGIQSHESRTYLALLDNPGSTVAELAEVLDRDRSNVNRSLTTLLDKGLTERKRRLLDPGGYVYQYTATPLPEAKEMMHAALDEWAEDVHARIDAFGES
notes: 123 aa, 14 kDa; UniProtKB D4GY41; also called OxsR-StrepII; OxsR wt; source: H. volcanii SH125 (H26 ΔoxsR) carrying pJAM4019, purified (Strep-Tactin Superflow Plus resin, 2 M NaCl buffers); not shown: StrepII, C-terminal, kept
B1: binds.
